# Laboratory results: the DeepSol protein solubility set
# Test: soluble on expression in E. coli; label from the status in PepcDB or PDB records
row,Sequence,soluble on expression in E. coli
1,MEIDGGPPPFCGVAVDDSYDKSEQHEYDEVDDSPDSTSLPLPSASRSRSVTPVKDMAAGHEAVPEASDNNEKGDTMTTALSQDEFTGFQNSEIQKEEDDDDDEWGDFGEAVVAAAPIQARPQSPPPSLKMDGFNNEDDDDDDDWGAFDQARPSTDRTESSPNSSRSQEARHQQSLDEWGAFENSNDLKANGDEWQAEFSSASDVPPPPSDTVLENLELLDEMLENVEFWHDGFQEECREEEESPEMDVVDIPALFDSENLVEMVNSFEVERQRDSRLWLSLRLVEEAISLKFDWNNSEIRKNHLKSLKINPVTAKKEPRAMNSFFDTSNLLLPTPIQATTTSSSTESSHDSSATATNPKTSSSSPPSSVIDSPSVPAVDFDWDTSGLTNPMNRASKHLHELSKKCRNLVCSVSTNCINLLKCC,not soluble
2,MEINENPTSFKGFKILQLSDLHNKSFGNNNNRLVKKIIGENPDIIVMTGDMVNAKDNDFEVFINLAEQISKSFDVYYIVGNHEQDLNEDKRKILMDKLSEIGIRVLDNEKVTISRGAESINLYGLWFNLRYYKDLKNEYTKDVFFGTKQIQSILGDLDTDSYNILLTHNPLYADTYSNWGADLTLSGHIHGGMIRIPFVGGLLSPEREFFPEYDAGKYQVNGKILIVNRGLGNGDFGIRVFNPPEISVIMLSNLEHHHHHH,not soluble
3,MEINIFNTNKKYDVIYADPPWRYNDRKCNGACEHHYDTMTLEEIKKLPIKELCEKDCVLFLWTTYPMLKEALEVMEAWGFKYKSIAFQWIKLNRSGNGKFFGLGRWTRGNTEPCLLAVKGKPSRKSNSVSQLIEYPLGKHSAKPPITRDKIKELMGEECKCLELFARNNIEGWDCWGNEVGKMDEVILEHHHHHH,soluble
4,MEKDKQQLSVEVARLYYQSDYSQQEIANKLNISRPTISRLLKYAKEKGFVQISIADPFADLDNVGNLLKEKYNLLEAHVVFSPVPEYATITEYISKYAAEYMEKTVKNGDIVGVSWGMTMYEIARKIVPQHVKGVEVVQLKGGISHSSVNTYANETIALFADAFQTTPRNLPLPVIFDNAVTKELVEQDRHIHHIIEMGKQANIAIFTVGTVRDEALLFRLGYFDKDETNLLKKQSVGDICSRFFDGDGNISSEEINKRTIGIELEELKLKKRSILVAGGNRKIKAIDGALRGGYANVLIIDQHTAKELLHYQKG,not soluble
5,MEKHPGKLFYRLSRLAPGDALPLKRGPKAKVYANPLETQALPPFRQDGGPPLFRAMAHLRPLLPEVGASLTLKDLSQVLYPLAEREGRRGFPSAGEAYPLEAYLVVRRVEGVFPGVYHYFPREHQLFQIASKVEEAAWAEALMGVALDRAAVLLVLTLLPERSEALFGLRGYRYALLEAGYAAGLVLLAAVGQGLAAYPAETFHDEGVARLLGLPEGEYPGVVVVLGR,soluble
6,MEKIAILVDVQNVYYTCREQYGRHFDYNQFWSQVTQNRTVVKANAYAIASKDPQQRQFHHILRGIGFEVMLKPFIQRSDGSAKGDWDVGIALDGYELAQEVDTVVLVSGDGDFEPLVTRIAQRFQVKVEVYGVPKLTAQHLIDVASQFHPIEHRLLL,not soluble
7,MEKLKEFRGIKEHLGVFREAVKDAERIGFAGVPGVCTPFAQLFAYAVRDKDNIFIPNTDFSKARKLEVTEYGVELGEISPGNVDVLVLLGGLSMPGIGSDIEDVKKLVEDALEEGGELMGLCYMDMFARAGWYELLDFDCVINADIDGYVLRG,soluble
8,MEKNLYDTNKLIELYKNKESMSGYTTILNVIEFPKALEFNLTVLYLSKSDYRLAIKISTELLKIGEPVPAVYTLISAIANKQRFKGCNAGQTFYAS,not soluble
9,MEKQVRVRYAPSPTGHLHIGNARTALFNYLFARHQDGKFIIRIEDTDVKRNVAGGEESQLKYLKWLGMDWDEGVDVGGEFGPYRQTERLDIYKKLYEDLLERGLAYKCYMTEEELEAEREGQIARGETPRYAGNHRDLTEAQVKEFEAEGRIPSIRFRVPADRDYTFKDIVKDEVAFHSNDFGDFVIVKKDGIPTYNFAVAVDDHLMEITHVLRGDDHISNTPKQMMIYEAFGWDIPQFGHMTLIVNESRKKLSKRDESIIQFIEQYKELGYLPEAIFNFIALLGWSPVGEEEIFSQEEFIKMFDAARLSKSPALFDSQKLKWMNNQYMKKQDLDTVVELSLPHLVKAGRIGETLSEQEQAWIRDVIALYHEQMSFGAEIVELSEMFFKDHVDYEEEGQEVLKGEQVPEVLRAFAGQVEALEAMEPAAIKAAIKAVQKETGHKGKNLFMPIRVATTGQTHGPELPNAIALLGKEKVLNRLQKVIG,soluble
10,MEKRELKVKTLSEVRDYEIPILKETVFDIFGGLPQAFIGISGEAGAGKTQTLMRLMADIAKREPVLVVLTEQSPHRWKAIFKKYDTNHENVRVVFKYYMDQDFIKELSQREERIIVIDSISGAVSEQKARQVAKDLRSLVEWKNKWLVGALQVRKEGVAGGEGVEHMIEVSYEITYFQLKPQNKWLYEKLKPFGYEVGDYVRLIRNTFDKVRGVQNTNLVVVDISKKNGILEFRELGRKEGEVNHE,not soluble
11,MEKVYGLIGFPVEHSLSPLMHNDAFARLGIPARYHLFSVEPGQVGAAIAGVRALGIAGVNVTIPHKLAVIPFLDEVDEHARRIGAVNTIINNDGRLVGYNTDGLGYVQALEEEMNITLDGKRILVIGAGGGARGIYFSLLSTAAERIDMANRTVEKAERLVREGDERRSAYFSLAEAETRLAEYDIIINTTSVGMHPRVEVQPLSLERLRPGVIVSDIIYNPLETKWLKEAKARGARVQNGVGMLVYQGALAFEKWTGQWPDVNRMKQLVIEALRR,soluble
12,MELDVFVGNTTVLDEDIYQLWLDGHSVSDVVRQRMDAGVLLECEASPDVLQSDTIDQFRTFQMCERLLQSPSKVANQLLFQIPSDQQAMLIERYYEFDSVFAREVLGKKLSKGTKKDLDDVSAKTGIALKSCRRQFDNFKRVFKVVEELKGPLVENIQRHFLLSDDLARDYATIVFFANSRFETGKRKLQYLSFQDFAFCAGQLISYWTVGAVDNMIEDMDVDLEKDFLHDLKDLKVLVNDKDLLDQHKSLVCGQLRGKIKVFNEMEASFKNLSRALVNIASKLTHAKDVRDLFIDLVEKFIEPCRSDKWTSGDLRLFLTHYSTSVHTLEAFRHQVIWDRYMGVIKSCILKMYHD,soluble
13,MELEFKCSDVGVWKEALSSYDSRIESLNKPELVSLDQFYRIKLPCLLHDRDPNPYLTTSELSQLMKWKLSRGKWRPRLLDFVSSLDDSVVKSASEKAFKSLPDISKAVKELTVLKGVGAATASAVLAAYAPDIAPFMSDEAMEVALGNSKDYSLKQYLLFATKLQDKAKELKLKGEWDGPSDIERALWSCTVRAKSQPEKSSSGKKRKR,not soluble
14,MELKQFKIAVLPLRDKLLSYARKLTDDHSDAEDAVQEVMLKLWNLRPKLDEYHSIEALAMTMTHHTCMDILRGKHPDNLSLDSVQAASPVATPERLLEEKDEFSLMRHIISTLPPLQQTILRMKDVEEYETEEIAEITGCSSEAIRSNLSRARKKVRDIYLQTIQQRKRRNEA,not soluble
15,MELLCPAGNLPALKAAIENGADAVYIGLKDDTNARHFAGLNFTEKKLQEAVSFVHQHRRKLHIAINTFAHPDGYARWQRAVDMAAQLGADALILADLAMLEYAAERYPHIERHVSVQASATNEEAINFYHRHFDVARVVLPRVLSIHQVKQLARVTPVPLEVFAFGSLCIMSEGRCYLSSYLTGESPNTIGACSPARFVRWQQTPQGLESRLNEVLIDRYQDGENAGYPTLCKGRYLVDGERYHALEEPTSLNTLELLPELMAANIASVKIEGRQRSPAYVSQVAKVWRQAIDRCKADPQNFVPQSAWMETLGSMSEGTQTTLGAYHRKWQ,soluble
16,MELNWALFYGLCPSIKMAHVFDKDEIMGLFESFRKARAKTKAEIKAAKVKARQEVKDATKLEIKRNKLLAQQEKALLKEERKGLKAKRKHEEKLAKTTLEQLKAGKFNKDNVLRYAGAARTLAPIVLPLIYRGITLAKEQANTKRALRLGIDPSDLARFAGHGAELKARIEGIRGSVKVSSLPKGFVADVEQRLDDLTFAVDNAEYMTPELRQRSHRSIANDLDQLARQIQDKIGE,not soluble
17,MELRIGFGFDSHEFVEGKLLILGGVEIEKDYGLKGHSDGDALLHAITDAILGALGERDIGEIFKDTDPRWKNAPSRIFLEKALEVMSEKGFNISNIDCVIVADRPKIAPHKERIKESLSKLLGIPKERISLKGKRREGFCEGNGLVCMCTVLLVKMLEHHHHHH,soluble
18,MELTFNQAAKGVNKEFTVNIMDTCERCNGKGNEPGTKVQHCHYCGGSGMETINTGPFVMRSTCRRCGGRGSIIISPCVVCRGAGQAKQKKR,soluble
19,MENGCGKMESFSPQALEMIRSLGTTHIWYIGMLEQATQTNYSDAGILPCHPEIVKGKAGSPYAVRDYYDVSPELATNIPNRMAEFHDLIERTHRAGMGVIMDFVPNHVAREYRSDVKPSGTKDLGEEDDPLVAFSPNNNFYYLPGKCLELDFGERSRTMMPYHEEPARATGNDRFSSHIDKEDWYETVKLNYGIDYLNGGSKHFDPLPDTWIRMRDILLFWASKGIDGFRCDMAEMVPVKFWEWAIPQIRERHSVLFIAEIYRPELYESYLQAGFDYLYDKVGMYDCLRTVICGYGSASDISRVVRQTERFADNMLYFLENHDEQRIASDFFAEDARKALPAVTIAATIGRNPFMLYFAQELGERGMDAEGFSGKDGRTTIFDYWSLDKMQRRINDGRYDTTMLSEEERLLLQSYTRLLHDVCALPSVIQGSFYDLGYANQNNPYFRPNREFAFLRHTTDEILLVAANFAPHEAEIRVIIPEHAFQTMQIKDNAAFLLTDMLSGENSIGCLTQYAPYPLHLPAYGYALHRFRPL,not soluble
20,MENGHLAKVDLTKKIESKSKYNKKLEKYQRRLLALQQILKEEKIAVMLVMEGWDAAGKGGAIKRVTEHLDPRGFQVDPIGAPAPHEKRYHYLQRFWRKIPQYGQITIFDRSWYGRVLVERVEGFATKEEWMRAYDEINDFEKLLTDDHYIIGKFFYHISKEEQLKRFKDREKNPLKRWKITDEDWRNREKWDEYVEAMEDMFEKTSKPNAKWHIIESNDKLYARVKTLKIIISFIEDYFLEHGIELPSYYYEMKEDIEVLQDVGVKE,not soluble
21,MENKKNDNQQPTVASAHHPFYLGEMKKGMFACWTVTTQCCDDTKVTILDDTGKVYATYTKAFTQSHNLTLLGQGNAIIEGNELRVYVDSSMSSQLIASTNTHLINDLNARKVGAVTDICIEDQTDNDFNDVYINVVAWNKKG,not soluble
22,MENNTNQENSDALENVSFACIRPEILYFGTPVVLISTIDREGKVNLAPISSAWALGYSVVMGIGTESKTMENLRETGECTLNFPEGALWESVERLAPLTGKYPVPQDKADKFRFESNKFGVAGLTPCDSEVVKPPRVLECRLQMEACVKSVRRISEPDVQAGIVEVKVVRVHARNDLIIDGKYIDPKQWKPLIYSFRHYFTLGCDLGKTFRSKI,not soluble
23,MENQPKLNSSKEVIAFLAERFPQCFSAEGEARPLKIGIFQDLVERVGGEMNLSKTQLRAALRLYTSSWRYLYGVKAGAIRVDLDGNPCGELEEQHIAHARQQLEEAKARVQAQRAAQQAKKREAAAAAGQQDEGVRRERKPRPQQPRRKEGAEQRKPRPVAAKAPREERLTPVSDVSVLTVGQALKVKAGNNAMDATVLEITKDGVRVQLTSGMSMIVRAEHLVF,not soluble
